Test results as given in US20240132578A1.

Experiments:
Experiment in all cases: cell-based or functional assay
[1] = target: HIV-1 Env of pseudovirus CAAN (HIV-1)
[2] = target: Envelope protein of control pseudovirus MuLV (MuLV)
[3] = target: HIV-1 Env of isolate MGRM-D-018 (clade D) (HIV-1)
[4] = target: HIV-1 APV6 Env (HIV-1 isolate APV6 (clade B))
[5] = target: HIV-1 MGRM-D-018 Env (HIV-1 isolate MGRM-D-018 (clade D))
[6] = target: HIV-1 JRCSF Env (HIV-1 isolate JRCSF (clade B)) (UniProt P20871)
[7] = target: HIV-1 MGRM-C-027 envelope glycoprotein (Env), clade C pseudovirus (HIV-1)
[8] = target: HIV-1 MGRM-D-018 envelope glycoprotein (Env), clade D pseudovirus (HIV-1)
[9] = target: HIV-1 92UG024 envelope glycoprotein (Env), clade D pseudovirus (HIV-1)
[10] = target: HIV-1 JRFL envelope glycoprotein (Env), clade B pseudovirus (HIV-1)
[11] = target: HIV-1 MGRM-A-010 envelope glycoprotein (Env), clade A pseudovirus (HIV-1)
[12] = target: HIV-1 92UG005 envelope glycoprotein (Env), clade D pseudovirus (HIV-1)
[13] = target: HIV-1 JRFL envelope glycoprotein (Env) on virus (HIV-1, clade B, isolate JRFL)
[14] = target: HIV-1 APV6 envelope glycoprotein (Env) on virus (HIV-1, clade B, isolate APV6)
[15] = target: HIV-1 92TH021 envelope glycoprotein (Env) on virus (HIV-1, clade AE, isolate 92TH021)
[16] = target: HIV-1 MGRM-C-026 Env (pseudovirus) (HIV-1)
[17] = target: HIV-1 NL43 Env (pseudovirus) (HIV-1)
[18] = target: HIV-1 MGRM-C-027 Env (pseudovirus) (HIV-1)
[19] = target: HIV-1 MGRM-D-018 Env (pseudovirus) (HIV-1)
[20] = target: HIV-1 93UG077 Env (pseudovirus) (HIV-1)
[21] = target: HIV-1 envelope glycoprotein (Env) of isolate MGRM-C-026 (HIV-1)
[22] = target: HIV-1 envelope glycoprotein (Env) of isolate MGRM-C-028 (HIV-1)
[23] = target: HIV-1 envelope glycoprotein (Env) of isolate MGRM-C-027 (HIV-1)
[24] = target: HIV-1 JR-CSF Env T319A (HIV-1 (isolate JR-CSF, clade B)) (UniProt P20871)
[25] = target: HIV-1 JR-CSF Env N339A (HIV-1 isolate JR-CSF) (UniProt P20871)
[26] = target: HIV-1 92UG024 envelope glycoprotein (Env) (HIV-1)
[27] = target: HIV-1 MGRM-C-027 envelope glycoprotein (Env) (HIV-1)
[28] = target: HIV-1 APV13 envelope glycoprotein (Env) (HIV-1)
[29] = target: HIV-1 Env of isolate MG RM-D-022 (subtype D) (HIV-1)
[30] = target: HIV-1 Env of isolate MG RM-D-021 (subtype D) (HIV-1)

5329_C19 (PGT-136) (antibody), sequence (VH): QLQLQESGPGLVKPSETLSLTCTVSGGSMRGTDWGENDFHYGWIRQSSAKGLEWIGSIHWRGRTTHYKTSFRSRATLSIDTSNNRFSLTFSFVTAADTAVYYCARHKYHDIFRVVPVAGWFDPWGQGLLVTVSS
5329_C19 (PGT-136) (antibody), sequence (VL): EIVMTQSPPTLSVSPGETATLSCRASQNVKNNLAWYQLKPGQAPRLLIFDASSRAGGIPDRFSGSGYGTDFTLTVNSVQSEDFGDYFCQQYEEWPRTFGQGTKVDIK
1443_C16 (PG16) (TCN-116) (antibody), sequence (VH): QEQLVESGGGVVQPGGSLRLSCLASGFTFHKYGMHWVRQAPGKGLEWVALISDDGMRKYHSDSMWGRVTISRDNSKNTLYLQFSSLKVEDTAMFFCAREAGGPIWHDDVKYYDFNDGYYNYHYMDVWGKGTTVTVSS
1443_C16 (PG16) (TCN-116) (antibody), sequence (VL): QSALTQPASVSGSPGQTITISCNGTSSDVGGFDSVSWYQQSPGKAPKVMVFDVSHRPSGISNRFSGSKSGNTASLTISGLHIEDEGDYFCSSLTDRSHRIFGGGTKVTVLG

1443_C16 (PG16) (TCN-116) (antibody) was tested, and the IC50, pseudovirus neutralization (TZM-bl assay) [1] was 6.37 µg/mL and the IC50, pseudovirus neutralization (TZM-bl assay), control virus [2] was > 25 µg/mL.
Substance 1496_C09 (PG9) (TCN-109) (antibody) has a Neutralization IC80 [3] of 0.18 µg/mL, a Neutralization IC90 [3] of 0.43 µg/mL and a Neutralization IC95 [3] of 1.05 µg/mL. For the same substance, the neutralization IC50 [3] was 0.0444 µg/mL.
4838_L06 (PGT-121) (antibody) gave a Neutralization IC80 [4] of 0.145 µg/mL, a Neutralization IC95 [4] of 0.569 µg/mL and a Neutralization IC80 [5] of 0.0231 µg/mL. The Neutralization IC90 [5] was 0.0414 µg/mL, the Neutralization IC95 [5] was 0.0715 µg/mL and the Neutralization IC90 [6] was 0.223 µg/mL. For the same substance, the Neutralization IC95 [6] was 0.417 µg/mL.
For 4858_P08 (PGT-123) (antibody), the IC50, pseudovirus neutralization [7] was 0.0169 µg/mL, the IC80 (pseudovirus neutralization) [7] was 0.149 µg/mL and the IC90 (pseudovirus neutralization) [7] was > 10 µg/mL. For the same substance, the IC95 (pseudovirus neutralization) [7] was > 10 µg/mL, the IC50, pseudovirus neutralization [8] was 0.0047 µg/mL and the IC80 (pseudovirus neutralization) [8] was 0.0175 µg/mL. For the same substance, the IC90 (pseudovirus neutralization) [8] was 0.0381 µg/mL, the IC95 (pseudovirus neutralization) [8] was 0.0791 µg/mL and the IC50, pseudovirus neutralization [9] was > 10 µg/mL. For the same substance, the IC80 (pseudovirus neutralization) [9] was > 10 µg/mL, the IC90 (pseudovirus neutralization) [9] was > 10 µg/mL and the IC95 (pseudovirus neutralization) [9] was > 10 µg/mL. The IC50, pseudovirus neutralization [10] was 0.0283 µg/mL, the IC80 (pseudovirus neutralization) [10] was 0.0904 µg/mL and the IC90 (pseudovirus neutralization) [10] was 0.178 µg/mL. The IC95 (pseudovirus neutralization) [10] was 0.332 µg/mL, the IC50, pseudovirus neutralization [11] was 0.492 µg/mL and the IC80 (pseudovirus neutralization) [11] was 2.79 µg/mL. For the same substance, the IC90 (pseudovirus neutralization) [11] was 6.44 µg/mL, the IC95 (pseudovirus neutralization) [11] was > 10 µg/mL and the IC50, pseudovirus neutralization [12] was 2.49 µg/mL. For the same substance, the IC80 (pseudovirus neutralization) [12] was > 10 µg/mL, the IC90 (pseudovirus neutralization) [12] was > 10 µg/mL and the IC95 (pseudovirus neutralization) [12] was > 10 µg/mL.
With 4877_D15 (PGT-122) (antibody) the Neutralization IC80 [13] was 0.166 µg/mL, the Neutralization IC90 [13] was 0.342 µg/mL and the Neutralization IC95 [13] was 0.659 µg/mL. The neutralization IC50 [13] was 0.0471 µg/mL, the Neutralization IC80 [14] was 0.351 µg/mL and the Neutralization IC90 [14] was 0.779 µg/mL. The Neutralization IC95 [14] was 1.55 µg/mL, the neutralization IC50 [14] was 0.0851 µg/mL and the Neutralization IC80 [15] was > 10 µg/mL. The Neutralization IC90 [15] was > 10 µg/mL, the Neutralization IC95 [15] was > 10 µg/mL and the neutralization IC50 [15] was > 10 µg/mL.
In the case of 5123_A06 (PGT-125) (antibody), the Neutralization by PGT-125, IC50 [16] is reported as 0.0106 µg/mL, the Neutralization by PGT-125, IC80 [16] is reported as 0.035 µg/mL and the Neutralization by PGT-125, IC90 [16] is reported as 0.0705 µg/mL. The Neutralization by PGT-125, IC95 [16] was 0.134 µg/mL, the Neutralization by PGT-125, IC50 [17] was > 10 µg/mL and the Neutralization by PGT-125, IC80 [17] was > 10 µg/mL. The Neutralization by PGT-125, IC90 [17] was > 10 µg/mL, the Neutralization by PGT-125, IC95 [17] was > 10 µg/mL and the Neutralization by PGT-125, IC50 [18] was > 10 µg/mL. For the same substance, the Neutralization by PGT-125, IC80 [18] was > 10 µg/mL, the Neutralization by PGT-125, IC90 [18] was > 10 µg/mL and the Neutralization by PGT-125, IC95 [18] was > 10 µg/mL. It also gave a Neutralization by PGT-125, IC50 [19] of 0.0382 µg/mL, a Neutralization by PGT-125, IC80 [19] of 0.144 µg/mL and a Neutralization by PGT-125, IC90 [19] of 0.339 µg/mL. The Neutralization by PGT-125, IC95 [19] was 0.892 µg/mL, the Neutralization by PGT-125, IC50 [20] was 0.0262 µg/mL and the Neutralization by PGT-125, IC80 [20] was 0.0926 µg/mL. The Neutralization by PGT-125, IC90 [20] was 0.206 µg/mL and the Neutralization by PGT-125, IC95 [20] was 0.487 µg/mL.
5141_B17 (PGT-126) (antibody) showed a Neutralization IC80 [21] of 0.0345 µg/mL, a Neutralization IC90 [21] of 0.0831 µg/mL and a Neutralization IC95 [21] of 0.185 µg/mL. For the same substance, the neutralization IC50 [21] was 0.0076 µg/mL, the Neutralization IC80 [22] was 2.62 µg/mL and the Neutralization IC90 [22] was > 10 µg/mL. For the same substance, the Neutralization IC95 [22] was > 10 µg/mL, the neutralization IC50 [22] was 0.283 µg/mL and the Neutralization IC80 [23] was > 10 µg/mL. For the same substance, the Neutralization IC90 [23] was > 10 µg/mL, the Neutralization IC95 [23] was > 10 µg/mL and the neutralization IC50 [23] was 1.14 µg/mL.
Work on 5147_N06 (PGT-130) (antibody) yielded a Fold IC50 increase relative to wild-type [24] of 1.6 fold and a Fold IC50 increase relative to wild-type [25] of 0.2 fold.
5329_C19 (PGT-136) (antibody) was tested, and the Neutralization IC80 [26] was 0.619 µg/mL, the Neutralization IC90 [26] was 1.96 µg/mL and the Neutralization IC95 [26] was 5.97 µg/mL. The neutralization IC50 [26] was 0.0915 µg/mL, the Neutralization IC80 [27] was > 10 µg/mL and the Neutralization IC90 [27] was > 10 µg/mL. The Neutralization IC95 [27] was > 10 µg/mL, the neutralization IC50 [27] was > 10 µg/mL and the Neutralization IC80 [28] was > 10 µg/mL. The Neutralization IC90 [28] was > 10 µg/mL, the Neutralization IC95 [28] was > 10 µg/mL and the neutralization IC50 [28] was > 10 µg/mL.
For PGV04 (antibody), the IC50 (µg/mL), pseudovirus neutralization [29] was > 50 µg/mL and the IC50 (µg/mL), pseudovirus neutralization [30] was > 50 µg/mL.
